Measurements taken from article doi:10.1101/2024.11.14.623549 (bioRxiv, 2024).

B1: Sla2ccRTH (Sla2 residues 351-968) (domain or fragment, Saccharomyces cerevisiae, UniProt P33338 351-968, looked up)
chain: ATAQMQPDFWANQQAQFANEQNRLEQERVQQLQQQQAQQELFQQQLQKAQQDMMNMQLQQQNQHQNDLIALTNQYEKDQALLQQYDQRVQQLESEITTMDSTASKQLANKDEQLTALQDQLDVWERKYESLAKLYSQLRQEHLNLLPRFKKLQLKVNSAQESIQKKEQLEHKLKQKDLQMAELVKDRDRARLELERSINNAEADSAAATAAAETMTQDKMNPILDAILESGINTIQESVYNLDSPLSWSGPLTPPTFLLSLLESTSENATEFATSFNNLIVDGLAHGDQTEVIHCVSDFSTSMATLVTNSKAYAVTTLPQEQSDQILTLVKRCAREAQYFFEDLMSENLNQVGDEEKTDIVINANVDMQEKLQELSLAIEPLLNIQSVKSNKETNPHSELVATADKIVKSSEHLRVDVPKPLLSLALMIIDAVVALVKAAIQCQNEIATTTSIPLNQFYLKNSRWTEGLISAAKAVAGATNVLITTASKLITSEDNENTSPEQFIVASKEVAASTIQLVAASRVKTSIHSKAQDKLEHCSKDVTDACRSLGNHVMGMIEDDHSTSQQQQPLDFTSEHTLKTAEMEQQVEILKLEQSLSNARKRLGEIRRHAYYNQDDD
B2: Sla1 SH3_3 domain (Sla1 residues 355-414) (domain or fragment, Saccharomyces cerevisiae)
chain: GAMAKKRGIVQYDFMAESQDELTIKSGDKVYILDDKKSKDWWMCQLVDSGKSGLVPAQFIEPVR
modifications: also: RED-NHS dye label, site not given here
B5: Clathrin Light Chain (CLC), residues 1-233 (natural protein, Saccharomyces cerevisiae, UniProt P17891 1-233, looked up)
chain: MSEKFPPLEDQNIDFTPNDKKDDDTDFLKREAEILGDEFKTEQDDILETEASPAKDDDEIRDFEEQFPDINSANGAVSSDQNGSATVSSGNDNGEADDDFSTFEGANQSTESVKEDRSEVVDQWKQRRAVEIHEKDLKDEELKKELQDEAIKHIDDFYDSYNKKKEQQLEDAAKEAEAFLKKRDEFFGQDNTTWDRALQLINQDDADIIGGRDRSKLKEILLRLKGNAKAPGA
modifications: RED-NHS dye label

Key:
mass photometry = biological target: the molecule itself; experiment: mass photometry
[1] = biological target: T1, Sla2:270-350 (complete IDR of Sla2) (Saccharomyces cerevisiae, UniProt P33338 270-350); experiment: MST
T1 sequence (looked up): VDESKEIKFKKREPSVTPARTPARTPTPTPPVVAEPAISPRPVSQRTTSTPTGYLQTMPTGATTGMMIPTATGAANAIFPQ

[2] = biological target: B2; experiment: MST
[3] = biological target: B1; experiment: mass photometry
[4] = biological target: B5; experiment: MST
Sla2cc ΔSite1 (Δ515-546) = biological target: T2, Sla2cc ΔSite1 (Δ515-546) (Saccharomyces cerevisiae, UniProt P33338 296-767, Δ515-546); experiment: MST
T2 sequence (looked up): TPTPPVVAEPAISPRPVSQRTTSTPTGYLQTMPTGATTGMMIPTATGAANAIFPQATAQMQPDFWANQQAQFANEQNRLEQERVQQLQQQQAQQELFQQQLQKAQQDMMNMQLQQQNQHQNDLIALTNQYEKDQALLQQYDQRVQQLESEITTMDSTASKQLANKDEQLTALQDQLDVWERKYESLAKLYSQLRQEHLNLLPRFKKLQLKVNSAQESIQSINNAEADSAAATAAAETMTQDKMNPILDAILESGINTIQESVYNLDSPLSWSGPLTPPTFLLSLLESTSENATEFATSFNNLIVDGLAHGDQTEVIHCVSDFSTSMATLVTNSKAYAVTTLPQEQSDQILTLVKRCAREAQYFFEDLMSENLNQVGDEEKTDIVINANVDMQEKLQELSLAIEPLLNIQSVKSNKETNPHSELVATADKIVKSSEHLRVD

B1
stoichiometry N (mass photometry): 2

B2
Kd [1]: 900 nM

PVSTPARTPARTPTP [Sla2:283-297 peptide]
Kd [2]: 81200 nM

B3: NusA conjugated to CLC (NusA-CLC) (natural protein, Saccharomyces cerevisiae, UniProt P17891 1-233, looked up)
chain: MSEKFPPLEDQNIDFTPNDKKDDDTDFLKREAEILGDEFKTEQDDILETEASPAKDDDEIRDFEEQFPDINSANGAVSSDQNGSATVSSGNDNGEADDDFSTFEGANQSTESVKEDRSEVVDQWKQRRAVEIHEKDLKDEELKKELQDEAIKHIDDFYDSYNKKKEQQLEDAAKEAEAFLKKRDEFFGQDNTTWDRALQLINQDDADIIGGRDRSKLKEILLRLKGNAKAPGA
stoichiometry N [3]: 1 NusA-CLC per Sla2 dimer

B4: Sla2cc (Sla2 residues 296-767), WildType (domain or fragment, Saccharomyces cerevisiae, UniProt P33338 296-767, looked up)
chain: TPTPPVVAEPAISPRPVSQRTTSTPTGYLQTMPTGATTGMMIPTATGAANAIFPQATAQMQPDFWANQQAQFANEQNRLEQERVQQLQQQQAQQELFQQQLQKAQQDMMNMQLQQQNQHQNDLIALTNQYEKDQALLQQYDQRVQQLESEITTMDSTASKQLANKDEQLTALQDQLDVWERKYESLAKLYSQLRQEHLNLLPRFKKLQLKVNSAQESIQKKEQLEHKLKQKDLQMAELVKDRDRARLELERSINNAEADSAAATAAAETMTQDKMNPILDAILESGINTIQESVYNLDSPLSWSGPLTPPTFLLSLLESTSENATEFATSFNNLIVDGLAHGDQTEVIHCVSDFSTSMATLVTNSKAYAVTTLPQEQSDQILTLVKRCAREAQYFFEDLMSENLNQVGDEEKTDIVINANVDMQEKLQELSLAIEPLLNIQSVKSNKETNPHSELVATADKIVKSSEHLRVD
modifications: RED-NHS dye label (only in the MST against CLC:70-140 and Pan1:777-987)
KD of Site 1 (higher affinity site) [4]: ~100 nM
KD of Site 2 (lower affinity site) [4]: 3000 nM

B5
binding result (Sla2cc ΔSite1 (Δ515-546)): binds
